Columns and labels:
HLA-A*01:01 = experiment: IEDB peptide-MHC binding, purified MHC/direct/fluorescence; filed as Kd, often an IC50 or EC50 that approximates it; ≥ and ≤ were set here for values at or beyond the usual limits of such assays
HLA-A*02:01 [1] = experiment: as above
HLA-A*03:01 = experiment: as above
HLA-A*11:01 = experiment: as above
HLA-A*29:02 = experiment: as above; conditions: source organism: Influenza A virus (A/Hong Kong/507/97(H5N1))
HLA-B*08:03 = experiment: as above
HLA-B*15:01 [2] = experiment: as above
HLA-B*18:01 = experiment: as above
HLA-B*27:05 = experiment: as above
HLA-B*40:01 = experiment: as above
HLA-B*44:02 = experiment: as above
HLA-B*46:01 [3] = experiment: as above
HLA-B*58:01 = experiment: as above
HLA-B*08:01 [4] = experiment: IEDB peptide-MHC binding, purified MHC/competitive/fluorescence; filed as Kd, often an IC50 or EC50 that approximates it; ≥ and ≤ were set here for values at or beyond the usual limits of such assays; conditions: source organism: Influenza A virus (A/X-31(H3N2))
HLA-B*51:01 = experiment: as above; conditions: source organism: Influenza A virus (A/X-31(H3N2))
HLA-A*02:01 [5] = experiment: IEDB peptide-MHC binding, purified MHC/competitive/fluorescence; ≥ and ≤ were set here for values at or beyond the usual limits of such assays; conditions: source organism: Zaire ebolavirus
HLA-A*24:02 [6] = experiment: as above
HLA-B*08:01 [7] = experiment: as above
HLA-B*15:01 [8] = experiment: as above; conditions: source organism: Zaire ebolavirus
HLA-A*24:02 [9] = experiment: IEDB peptide-MHC binding, purified MHC/competitive/fluorescence; filed as Kd, often an IC50 or EC50 that approximates it; ≥ and ≤ were set here for values at or beyond the usual limits of such assays
HLA-A*02:03 = experiment: IEDB peptide-MHC binding, purified MHC/direct/fluorescence; filed as Kd, often an IC50 or EC50 that approximates it; ≥ and ≤ were set here for values at or beyond the usual limits of such assays
HLA-A*02:06 = experiment: as above
HLA-A*02:11 = experiment: as above
HLA-A*02:12 = experiment: as above
HLA-A*02:19 = experiment: as above
HLA-A*31:01 = experiment: as above
HLA-B*07:02 = experiment: as above
HLA-C*05:01 = experiment: as above; conditions: source organism: Brucella melitensis bv. 1 str. 16M
HLA-A*24:02 [10] = experiment: as above; conditions: source organism: Vibrio cholerae
HLA-A*26:01 = experiment: as above; conditions: source organism: Vibrio vulnificus YJ016
HLA-A*69:01 = experiment: as above
HLA-B*08:01 [11] = experiment: as above; conditions: source organism: Vibrio vulnificus YJ016
HLA-C*06:02 = experiment: as above; conditions: source organism: Listeria monocytogenes J0161
HLA-A*80:01 = experiment: as above; conditions: source organism: Mammarenavirus lassaense
HLA-B*35:01 = experiment: IEDB peptide-MHC binding, purified MHC/competitive/fluorescence; filed as Kd, often an IC50 or EC50 that approximates it; ≥ and ≤ were set here for values at or beyond the usual limits of such assays; conditions: source organism: Mopeia Lassa virus reassortant 29
HLA-B*46:01 [12] = experiment: as above; conditions: source organism: Mopeia Lassa virus reassortant 29
HLA-A*02:16 = experiment: IEDB peptide-MHC binding, purified MHC/direct/fluorescence; filed as Kd, often an IC50 or EC50 that approximates it; ≥ and ≤ were set here for values at or beyond the usual limits of such assays; conditions: source organism: Brucella suis 1330
HLA-A*68:02 = experiment: as above; conditions: source organism: Campylobacter jejuni RM1221
HLA-B*15:17 = experiment: as above; conditions: source organism: Campylobacter jejuni RM1221
HLA-B*48:01 = experiment: as above; conditions: source organism: Campylobacter jejuni RM1221
HLA-B*57:01 = experiment: as above; conditions: source organism: Campylobacter jejuni RM1221
[13] = source organism: Influenza A virus (A/Hong Kong/507/97(H5N1))
[14] = source organism: Zaire ebolavirus
[15] = source organism: Vaccinia virus
[16] = source organism: Brucella abortus
[17] = source organism: Brucella suis ATCC 23445
[18] = source organism: Vibrio cholerae
[19] = source organism: Vibrio vulnificus YJ016
[20] = source organism: Vaccinia virus Copenhagen
[21] = source organism: Brucella suis 1330
[22] = source organism: Campylobacter jejuni RM1221

LAKSVFNSL
Kd (HLA-A*01:01; [13]): ≥ 20 µM | Kd (HLA-A*02:01 [1]; [13]): ≥ 20 µM | Kd (HLA-A*03:01; [13]): ≥ 20 µM | Kd (HLA-A*11:01; [13]): ≥ 20 µM | Kd (HLA-A*29:02): ≥ 20 µM | Kd (HLA-B*08:03; source organism: Influenza A virus (A/Taiwan/2/2006(H1N1))): 2.13 µM | Kd (HLA-B*15:01 [2]; [13]): ≥ 20 µM | Kd (HLA-B*18:01; [13]): ≥ 20 µM | Kd (HLA-B*27:05; [13]): ≥ 20 µM | Kd (HLA-B*40:01; [13]): ≥ 20 µM | Kd (HLA-B*44:02; [13]): ≥ 20 µM | Kd (HLA-B*46:01 [3]; [13]): ≥ 20 µM | Kd (HLA-B*58:01; [13]): ≥ 20 µM | Kd (HLA-B*08:01 [4]): 0.726 µM | Kd (HLA-B*51:01): ≥ 20 µM

HMMVIFRLM
IC50 (HLA-A*02:01 [5]): 0.176 µM | IC50 (HLA-A*24:02 [6]; [14]): 0.83 µM | IC50 (HLA-B*08:01 [7]; [14]): ≥ 3440 µM | IC50 (HLA-B*15:01 [8]): ≥ 168 µM

FKPPKFRAF
IC50 (HLA-A*24:02 [6]; [15]): 52.6 µM | IC50 (HLA-B*08:01 [7]; [15]): ≥ 191 µM

YQGKFYMPF
Kd (HLA-A*24:02 [9]; source organism: Yersinia pestis Nepal516): 0.0003 µM

LSDDSGLMV
Kd (HLA-A*01:01; [16]): 0.0217 µM | Kd (HLA-A*02:01 [1]; [16]): 1.05 µM | Kd (HLA-A*02:03; [17]): 0.42 µM | Kd (HLA-A*02:06; [17]): 0.062 µM | Kd (HLA-A*02:11; [17]): 0.071 µM | Kd (HLA-A*02:12; [17]): 1.58 µM | Kd (HLA-A*02:19; [17]): ≥ 20 µM | Kd (HLA-A*03:01; [16]): ≥ 20 µM | Kd (HLA-A*11:01; [16]): ≥ 20 µM | Kd (HLA-A*31:01; [16]): ≥ 20 µM | Kd (HLA-B*07:02; [16]): ≥ 20 µM | Kd (HLA-B*15:01 [2]; [16]): ≥ 20 µM | Kd (HLA-B*27:05; [16]): ≥ 20 µM | Kd (HLA-B*40:01; [16]): ≥ 20 µM | Kd (HLA-B*44:02; [16]): ≥ 20 µM | Kd (HLA-B*46:01 [3]; [16]): ≥ 20 µM | Kd (HLA-B*58:01; [16]): ≥ 20 µM | Kd (HLA-C*05:01): 0.007 µM

VVYKEAKIK
Kd (HLA-A*01:01; [18]): ≥ 20 µM | Kd (HLA-A*02:01 [1]; [18]): 0.978 µM | Kd (HLA-A*02:03; [19]): 1.12 µM | Kd (HLA-A*02:06; [19]): 0.657 µM | Kd (HLA-A*02:11; [19]): 0.868 µM | Kd (HLA-A*02:12; [19]): 1.99 µM | Kd (HLA-A*02:19; [19]): ≥ 20 µM | Kd (HLA-A*03:01; [18]): 0.313 µM | Kd (HLA-A*24:02 [10]): ≥ 20 µM | Kd (HLA-A*26:01): ≥ 20 µM | Kd (HLA-A*69:01; [18]): ≥ 20 µM | Kd (HLA-B*07:02; [18]): ≥ 20 µM | Kd (HLA-B*08:01 [11]): ≥ 20 µM | Kd (HLA-B*15:01 [2]; [18]): ≥ 20 µM | Kd (HLA-B*18:01; [18]): ≥ 20 µM | Kd (HLA-B*27:05; [18]): ≥ 20 µM | Kd (HLA-B*40:01; [18]): ≥ 20 µM | Kd (HLA-B*44:02; [18]): ≥ 20 µM | Kd (HLA-B*46:01 [3]; [18]): ≥ 20 µM | Kd (HLA-B*58:01; [18]): ≥ 20 µM

YYVWMVQFF
Kd (HLA-C*06:02): ≥ 20 µM | Kd (HLA-A*24:02 [9]; source organism: Listeria monocytogenes J0161): 0.0002 µM

GNIKHKERI
IC50 (HLA-A*24:02 [6]; [20]): 47.7 µM | IC50 (HLA-B*08:01 [7]; [20]): ≥ 199 µM

YSQESPQSY
Kd (HLA-A*01:01; source organism: Mammarenavirus lassaense): 0.0011 µM | Kd (HLA-A*80:01): ≥ 20 µM | Kd (HLA-B*35:01): 0.044 µM | Kd (HLA-B*46:01 [12]): 0.842 µM

IFIYSFFTW
Kd (HLA-A*24:02 [9]; source organism: Francisella tularensis subsp. holarctica FSC200): 0.0111 µM

MRDGGSATV
Kd (HLA-A*02:01 [1]; source organism: Brucella suis): ≥ 20 µM | Kd (HLA-A*02:06; [21]): ≥ 10 µM | Kd (HLA-A*02:12; [21]): ≥ 20 µM | Kd (HLA-A*02:16): ≥ 10 µM | Kd (HLA-A*02:19; [21]): ≥ 20 µM | Kd (HLA-A*69:01; [21]): ≥ 20 µM

VQKVNPAPK
Kd (HLA-A*01:01; [22]): ≥ 20 µM | Kd (HLA-A*02:01 [1]; [22]): ≥ 20 µM | Kd (HLA-A*03:01; [22]): 0.476 µM | Kd (HLA-A*31:01; [22]): 0.904 µM | Kd (HLA-A*68:02): ≥ 20 µM | Kd (HLA-B*07:02; [22]): ≥ 20 µM | Kd (HLA-B*08:03; source organism: Campylobacter jejuni subsp. jejuni 81116): ≥ 20 µM | Kd (HLA-B*15:01 [2]; [22]): 1.12 µM | Kd (HLA-B*15:17): ≥ 20 µM | Kd (HLA-B*18:01; [22]): ≥ 20 µM | Kd (HLA-B*27:05; [22]): ≥ 10 µM | Kd (HLA-B*40:01; [22]): ≥ 20 µM | Kd (HLA-B*46:01 [3]; [22]): ≥ 20 µM | Kd (HLA-B*48:01): ≥ 20 µM | Kd (HLA-B*57:01): ≥ 20 µM | Kd (HLA-B*58:01; [22]): ≥ 20 µM
